Experimental data taken from PMC8291384 (Nature structural & molecular biology, 2020).

Biological target: T1, mouse RAG1 (aa 265-1040) E962Q, His6-MBP fusion (mouse, UniProt P15919 265-1040, E962Q)
T1 sequence (looked up): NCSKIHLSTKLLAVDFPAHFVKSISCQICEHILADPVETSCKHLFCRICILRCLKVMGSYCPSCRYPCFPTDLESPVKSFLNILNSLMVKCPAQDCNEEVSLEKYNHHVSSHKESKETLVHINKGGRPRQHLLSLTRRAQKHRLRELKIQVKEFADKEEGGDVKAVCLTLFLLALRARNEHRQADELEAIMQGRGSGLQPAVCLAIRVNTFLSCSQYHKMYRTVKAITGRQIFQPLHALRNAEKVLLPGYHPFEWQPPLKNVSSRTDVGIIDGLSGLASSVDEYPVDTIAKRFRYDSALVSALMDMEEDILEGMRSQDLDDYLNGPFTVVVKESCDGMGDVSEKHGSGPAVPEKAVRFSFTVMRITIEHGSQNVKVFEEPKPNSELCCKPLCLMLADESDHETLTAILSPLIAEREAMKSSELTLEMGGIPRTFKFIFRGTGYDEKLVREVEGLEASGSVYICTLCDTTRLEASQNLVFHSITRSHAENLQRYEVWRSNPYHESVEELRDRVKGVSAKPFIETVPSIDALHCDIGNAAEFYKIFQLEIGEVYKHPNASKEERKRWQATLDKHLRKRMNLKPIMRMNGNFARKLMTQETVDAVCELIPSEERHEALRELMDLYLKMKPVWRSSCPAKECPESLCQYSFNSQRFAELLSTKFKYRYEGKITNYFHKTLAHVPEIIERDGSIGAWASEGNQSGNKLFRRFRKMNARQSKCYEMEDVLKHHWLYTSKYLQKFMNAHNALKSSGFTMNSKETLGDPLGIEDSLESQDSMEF
Assay: cryo-EM structure

B1: mouse RAG2 (aa 1-520) T490A, His6-MBP fusion (domain or fragment, UniProt P21784 1-520, looked up)
chain: MSLQMVTVGHNIALIQPGFSLMNFDGQVFFFGQKGWPKRSCPTGVFHFDIKQNHLKLKPAIFSKDSCYLPPLRYPATCSYKGSIDSDKHQYIIHGGKTPNNELSDKIYIMSVACKNNKKVTFRCTEKDLVGDVPEPRYGHSIDVVYSRGKSMGVLFGGRSYMPSTQRTTEKWNSVADCLPHVFLIDFEFGCATSYILPELQDGLSFHVSIARNDTVYILGGHSLASNIRPANLYRIRVDLPLGTPAVNCTVLPGGISVSSAILTQTNNDEFVIVGGYQLENQKRMVCSLVSLGDNTIEISEMETPDWTSDIKHSKIWFGSNMGNGTIFLGIPGDNKQAMSEAFYFYTLRCSEEDLSEDQKIVSNSQTSTEDPGDSTPFEDSEEFCFSAEATSFDGDDEFDTYNEDDEDDESVTGYWITCCPTCDVDINTWVPFYSTELNKPAMIYCSHGDGHWVHAQCMDLEERTLIHLSEGSNKYYCNEHVQIARALQAPKRNPPLQKPPMKSLHKKGSGKVLTPAKKS
B1: binds.
